From paper PMC11325224, “Organophosphorus S-adenosyl-L-methionine mimetics: synthesis, stability, and substrate properties” (Frontiers in Chemistry, 2024)
Structures can show the parent of a compound that is named as a salt.

How the values were obtained:
[1] = biological target: T1, WBSCR27 (Mus musculus, UniProt Q8BGM4); assay: 1H, […] HSQC NMR titration; format: binding; details: 15N-labelled apo protein 0.2 mM, ligand 1:1 to 1:5; cofactor site
T1 construct: gene Mettl27; recombinant, 15N-labelled; purification details only in supplement
T1 sequence (Q8BGM4 1-238): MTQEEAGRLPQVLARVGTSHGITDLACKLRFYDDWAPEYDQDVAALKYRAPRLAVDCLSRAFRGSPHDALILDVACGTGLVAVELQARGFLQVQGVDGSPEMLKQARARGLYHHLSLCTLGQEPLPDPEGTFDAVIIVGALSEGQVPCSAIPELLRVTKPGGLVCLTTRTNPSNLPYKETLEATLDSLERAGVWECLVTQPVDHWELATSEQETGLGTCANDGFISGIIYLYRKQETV

[2] = test system: T2, CI; assay: Michaelis-Menten kinetics of SAH-PH methylation; format: biochemical, Arabidopsis thaliana; details: co-substrate rac-SAH-PH
T2 construct: engineered variant V140T, recombinant; expression details only in supplement

Molecule | 1H,15N HSQC NMR titration [1] | Km [2] [mM] | kcat [2] [s⁻¹]
C[S+](CCC(N)[PH](=O)O)C[C@H]1O[C@@H](n2cnc3c(N)ncnc32)[C@H](O)[C@@H]1O (mixture of isomers) [rac-SAM-PH, 5′-{S-[3-Amino-3-(hydrohydroxyphosphoryl)propy]-S-methylthionia}-5′-deoxyadenosine hydrochloride] | WBSCR27 strongly binds to SAM-P H |  | 
AtHMT^V140T (Arabidopsis thaliana; V140T) |  | 5.3 ± 3 | 0.3 ± 0.033
